# Assay results published in patent publication US20100209938A1.
# Key:
# [1] = molecular target: α4YFP nAChR subunit (mouse) (UniProt O70174); assay: pixel-by-pixel sensitized emission FRET, Gaussian fit of the NFRET distribution, N2a cells
# [2] = molecular target: α4YFP nAChR subunit (mouse) (UniProt O70174); assay: pixel-by-pixel sensitized emission FRET (NFRET), whole-cell ROI, N2a cells
# α4YFP nAChR subunit (mouse), sequence (O70174 31-629): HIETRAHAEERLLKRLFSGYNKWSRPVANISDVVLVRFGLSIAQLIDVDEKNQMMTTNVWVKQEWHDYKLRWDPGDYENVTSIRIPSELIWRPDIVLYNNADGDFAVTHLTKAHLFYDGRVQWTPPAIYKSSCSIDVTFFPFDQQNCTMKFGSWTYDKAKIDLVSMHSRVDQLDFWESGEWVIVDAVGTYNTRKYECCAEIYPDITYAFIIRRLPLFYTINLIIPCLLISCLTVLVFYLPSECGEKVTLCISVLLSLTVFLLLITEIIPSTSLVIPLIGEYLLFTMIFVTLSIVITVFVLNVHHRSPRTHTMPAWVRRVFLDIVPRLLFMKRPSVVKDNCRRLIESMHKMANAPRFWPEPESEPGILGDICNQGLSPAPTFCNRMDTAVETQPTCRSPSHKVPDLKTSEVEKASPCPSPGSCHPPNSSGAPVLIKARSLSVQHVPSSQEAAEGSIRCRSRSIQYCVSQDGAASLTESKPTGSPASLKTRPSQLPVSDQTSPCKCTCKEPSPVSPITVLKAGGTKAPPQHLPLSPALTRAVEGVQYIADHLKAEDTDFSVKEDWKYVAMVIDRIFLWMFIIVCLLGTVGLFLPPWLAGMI
# β2CFP nAChR subunit, sequence (Q9ERK7 26-501): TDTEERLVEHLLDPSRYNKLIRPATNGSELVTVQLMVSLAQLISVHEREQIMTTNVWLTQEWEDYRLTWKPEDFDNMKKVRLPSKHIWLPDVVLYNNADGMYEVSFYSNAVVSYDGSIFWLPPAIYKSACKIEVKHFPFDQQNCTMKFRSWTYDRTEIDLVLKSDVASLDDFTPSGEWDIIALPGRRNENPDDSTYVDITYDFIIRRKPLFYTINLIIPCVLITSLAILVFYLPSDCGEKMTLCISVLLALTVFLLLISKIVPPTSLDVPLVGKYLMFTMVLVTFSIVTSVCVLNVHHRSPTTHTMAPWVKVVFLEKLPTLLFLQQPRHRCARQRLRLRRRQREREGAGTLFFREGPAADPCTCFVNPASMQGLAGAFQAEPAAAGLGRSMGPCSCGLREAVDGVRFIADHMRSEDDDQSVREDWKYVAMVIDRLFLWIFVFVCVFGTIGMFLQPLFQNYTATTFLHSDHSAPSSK
substance,measurement,setting,value
β2CFP nAChR subunit (from UniProt Q9ERK7 26-501) (receptor),mean NFRET of first Gaussian component,[1],0.19
same,mean NFRET of second Gaussian component,[1],0.28
same,mean NFRET for all pixels,[2],0.2
